Patent US20140178293A1, “METHODS FOR IMAGING BONE PRECURSOR CELLS USING DUAL-LABELED IMAGING AGENTS TO DETECT MMP-9 POSITIVE CELLS” (BAYLOR COLLEGE OF MEDICINE, priority 2011, published 2014)
No end group written: not given here.

Columns and labels:
[1] = radiochemical stability of ^68Ga-M2 in PBS or DTPA challenge (radio-HPLC); format: physicochemical; details: room temperature, 3 h incubation
Experimental: (§1) The chemical, radiochemical and optical stability of radioactive and non-radioactive M2 were examined using a series of in vitro stability studies. M2 was incubated in PBS and water at room temperature and 4° C. for 14 days, followed by HPLC analysis of peptide and fluorescent stability. To assess radiochemical stability, ^68Ga-M2 was added to a solution of PBS or DTPA (500-fold excess), kept at room temperature for 1, 2 and 3 h, and analyzed by radio-HPLC. To evaluate serum stability, 150 μl of ^68Ga-M2 was added to 50% mouse serum and incubated at 37° C. An 80 μl aliquot was taken at each of the above-mentioned time points and added to 160 μl ice-cold acetonitrile. The samples were centrifuged at 14,000 rpm for 5 min and the supernatant was collected, filtered and analyzed by radio-HPLC.

in vitro = in vitro ADME; details: mouse, serum
Experimental: as §1

MMP-9 [2] = target: T1, MMP-9 (Mus musculus, UniProt P41245); assay: NIRF imaging of ^68Ga-M2 in murine model of BMP-2 induced HO; format: in vivo; design: injected intramuscularly into each hind limb quadriceps muscle of nonobese diabetic/severely compromised immunodeficient (NOD/SCID) mice; from tissue; host or cells: hind limb muscle of living NOD/SCID mice injected with AdBMP2- or Adempty-transduced human fibroblasts; details: day 4 after implantation, 18 hr after i.v. administration
T1 sequence (P41245 108-730): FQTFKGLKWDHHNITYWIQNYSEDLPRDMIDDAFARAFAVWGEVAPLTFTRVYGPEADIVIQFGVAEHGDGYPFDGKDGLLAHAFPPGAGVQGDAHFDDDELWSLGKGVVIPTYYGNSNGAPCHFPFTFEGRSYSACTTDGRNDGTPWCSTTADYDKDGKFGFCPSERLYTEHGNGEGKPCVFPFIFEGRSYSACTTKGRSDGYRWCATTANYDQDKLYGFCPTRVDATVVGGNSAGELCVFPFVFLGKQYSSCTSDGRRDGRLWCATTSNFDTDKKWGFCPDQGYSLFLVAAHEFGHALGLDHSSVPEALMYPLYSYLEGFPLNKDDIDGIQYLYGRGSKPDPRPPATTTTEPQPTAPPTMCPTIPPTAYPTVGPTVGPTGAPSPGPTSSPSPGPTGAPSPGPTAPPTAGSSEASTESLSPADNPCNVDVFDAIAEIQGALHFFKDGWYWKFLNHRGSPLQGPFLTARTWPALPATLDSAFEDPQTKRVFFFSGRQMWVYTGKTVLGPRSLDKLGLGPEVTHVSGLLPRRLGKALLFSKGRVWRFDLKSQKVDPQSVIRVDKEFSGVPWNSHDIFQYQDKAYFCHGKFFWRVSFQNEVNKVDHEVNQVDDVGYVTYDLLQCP
Experimental: (§2) A murine model of BMP-2 induced HO was used as previously described (Rodenberg et al., 2010). […] Control transduced cells were injected into the contralateral limb.
Based on the findings from the ex vivo analysis, mice were imaged on day 4 post-implantation with NIRF imaging to assess localization and in vivo fluorescence of M2 following ^68Ga-labeling. […] NIR fluorescence images were acquired 18 hr after intravenous administration of ^68Ga-M2 using a custom-built fluorescence imaging systems previously described Houston et al., 2005). Briefly, a field of view was illuminated with 785 nm of light from a laser diode, outfitted with a convex lens and diffuser to create a uniform excitation field. The fluorescence was collected through holographic and interference filters placed before a Nikon camera lens. The images were finally captured by an electron-multiplying charge-coupled device camera (PhotonMax 512; Princeton Instruments, Princeton, N.J.) with 200 to 400 milliseconds of integration time. For acquisition of white-light images, the optical filters were removed, and a low-power lamp illuminated the subject. Image acquisition was accomplished by V++ software (Auckland, New Zealand).

MMP-9 [3] = target: T1, MMP-9; design: injected intramuscularly into each hind limb quadriceps muscle of nonobese diabetic/severely compromised immunodeficient (NOD/SCID) mice; from tissue; host or cells: hind limb muscle of living NOD/SCID mice injected with AdBMP2- or Adempty-transduced human fibroblasts; details: in vivo, iv
Experimental: as §2
The anesthetized mice were injected intravenously with ^68Ga-M2 (200 μCi, 6 nmol) and μPET/CT images were acquired 1 h post-injection. To visualize the formation of ectopic bone, CT imaging was performed on days 4 and 11 post-implantation

[4] = characterization of fluorescent properties; format: physicochemical
Experimental: Fluorescence intensity of the fluorophores was determined using the Fluorolog Tau-3 Spectrofluorometer (Horiba Jobin Yvon, Edison, N.J.) with excitation from a xenon arc lamp and absorbance was recorded using the DU-800 Spectrophotometer (Beckman Coulter, Brea Calif.). Fluorescence excitation and emission spectra were obtained at wavelengths of 785 and 830 nm respectively, with an integration time of 0.3 seconds for 1 μM solutions of IRDye 800CW, M2 and ^68Ga-M2 (n=4). Fluorescence measurements for IRDye 800CW and M2 were performed in aqueous solution under ambient conditions, whereas ^68Ga-M2 was prepared as previously described in NaOAc (pH 4) to provide an accurate representation of the ^68Ga-labeling scheme. Extinction coefficients were determined from the slope of absorbance at 785 nm as a function of the concentration of serial dilutions of each agent. Fluorescence quantum yield was determined by the comparative method of Williams et al. (Williams et al., 1983) using the quantum yield of ICGO (Φ=0.016) at 785/830 nm as a standard.

[5] = format: physicochemical
Experimental: The lipophilicity of ^68Ga-M2 was assessed by determination of the water-octanol partition coefficient. 1-Octanol (1 mL) was added to a solution of approximately 25 μCi of ^68Ga-M2 in water (1 mL) and the layers were vigorously mixed for 5 min at room temperature. The tubes were centrifuged at 14,000 rpm for 2-3 min. Three samples of 100 μL of each layer were taken in pre-weighed vials, re-weighed, and counted in a […] (Wizard-2, Perkin Elmer). The partition coefficient was determined by calculating the ratio of counts per minute (cpm) in weight (g) of octanol/cpm in weight (g) of water and expressed as log P. At least three independent experiments were performed in triplicate to give the log P as the mean value±standard deviation (SD).

MMP-2/9 = details: Koivunen et al., 1999; cited from earlier work
[6] = in vivo; Kuhnast et al., 2004; Sprague et al., 2006; cited from earlier work
[7] = 1 μM solutions, IRDye 800CW and M2 aqueous, ^68Ga-M2 in NaOAc pH 4

For `CC(C)C[C@@H]1NC(=O)[C@H]([C@@H](C)O)NC(=O)[C@H](Cc2ccccc2)NC(=O)CNC(=O)[C@H](Cc2c[nH]c3ccccc23)NC(=O)[C@H](Cc2c[nH]cn2)NC(=O)[C@H](C)NC(=O)[C@@H](NC(=O)[C@H](CCCCNC(=O)CCCCC[N+]2=C(C=CC3=C(Oc4ccc(S(=O)(=O)O)cc4)C(=CC=C4N(CCCCS(=O)(=O)O)c5ccc(S(=O)(=O)O)cc5C4(C)C)CCC3)C(C)(C)c3cc(S(=O)(=O)[O-])ccc32)NC(=O)CN2CCN(CC(=O)O)CCN(CC(=O)O)CCN(CC(=O)O)CC2)CCCCNC(=O)C[C@@H](C(=O)O)NC1=O` (single isomer, unassigned) [^68Ga-M2, metal not drawn], the radiochemical purity ([1]; DTPA (500-fold excess)) was greater than 95%, the radiochemical purity ([1]; PBS) was greater than 95% and the remaining at 3 h (in vitro) was greater than 95%. For the same compound, the “localization of agent by NIR fluorescence” value (MMP-9 [2]) was “observed in the tissue region with BMP-2 producing cells”, the clearance from circulation (MMP-9 [3]) was “rapidly cleared from circulation via the kidneys” and the Emission maximum [4, 7] was 830 nm. For the same compound, the Excitation wavelength [4, 7] was 785 nm, the Quantum yield ([4]; 785/830 nm, relative to ICG (Φ=0.016)) was 0.031 and the Extinction coefficient ([4]; absorbance at 785 nm, serial dilutions, mean ± SD (n=4)) was 108,069±7,918 M^−1cm^−1. The absorbance maximum ([4]; optical spectrum) was 785 nm and the logP [5] was -2.09 ± 0.02.
For “c(CTTHWGFTLC) (also: cyclic, c(...), ring type and places not given here)”, the “inhibitory activity against MMP-2/9” value (MMP-2/9) is listed as “potent inhibitory activity” and the “susceptibility to non-specific degradation” value [6] is listed as “highly susceptible to non-specific degradation”.
